Among the data in the RNAGym collection of RNA variant scans (doi:10.7554/elife.80360) are self-cleavage values, retold here.

To fix the notation:
B1: CPEB3 Ribozyme (parent)
chain: GGGGGCCACAGCAGAAGCGUUCACGUCGCGGCCCCUGUCAGAUUCUGGUGAAUCUGCGAAUUCUGCUGU

In this series the parent is B1. The series is described as follows: self-cleavage, relative activity (ratio to wild type); higher = more cleavage; co-transcriptional.
As to U21G G37A, the self-cleavage stood at 0.193.
For U21G G37U the value was 0.196; for U21G G37C, 0.18.
For U21A U53A, the self-cleavage is 0.936.
For U21A U53C the value was 0.927; for U21A U53G, 0.863.
For U21G A59C the value was 0.223; for U21A G41C, 0.694; for U21A G41A, 0.855.
For U21A G41U the value was 0.824.
Take U21G C39G: the self-cleavage stood at 0.865.
For U21A G37U the value was 0.356; for U20G U61C, 0.19.
For U20G U61G the value was 0.171.
For U21C G41A the value was 0.677; for U21C G41U, 0.73; for U21C G41C, 0.538.
Take U21G G65U: the self-cleavage came to 0.243.
For U21G G65C the value was 0.306.
As to U21A C66G, the self-cleavage was 0.835.
On to U21A C66A, for which the self-cleavage is 0.781.
On to U21C U62G, for which the self-cleavage stood at 0.614.
For U21C U62C the value was 0.516; for U21A U36A, 0.253.
For U21A U36C the value was 0.693; for U21A U36G, 0.272; for U21C U64G, 0.75.
As for U21C U64C, the self-cleavage came out at 0.609.
For U21C A60U the value was 0.391; for U21C A60G, 0.663; for U21A U64C, 0.874.
For U21A U64A the value was 0.91; for U21C G37C, 0.23.
For U21A G68C the value was 1.02; for U21A G68U, 0.976; for U21C C66G, 0.744.
Consider U21C C66U, for which the self-cleavage came to 0.887.
For U21G G50U the value was 0.588; for U21C G65A, 0.671; for U21C G65C, 0.393.
For U21C G65U the value was 0.488.
Turning to U20G U53C, the self-cleavage is 0.222.
For U20G U53A the value was 0.127; for U20G U53G, 0.166.
For U20G U46A the value was 0.164.
For U20G U46C the value was 0.164; for U21C U43A, 0.771; for U21C U43G, 0.682.
Take U21G C27G: the self-cleavage was 0.227.
For U21A U46G the value was 0.934.
For U21A U46A the value was 1.03; for U21A U46C, 0.926.
For U21A U55C the value was 0.874; for U21G U36A, 0.17; for U21C U55C, 0.611.
In the case of U21A U43G, the self-cleavage was determined as 0.833.
Regarding U21A U43A, the self-cleavage amounted to 0.906.
For U21A A52G the value was 1.01; for U21A A52C, 1.03.
For U21A A52U the value was 0.935; for U21C G56U, 0.693.
For U21C G56A the value was 0.657; for U21C A23U, 0.803; for U21C A23C, 0.608.
As to U21G G48C, the self-cleavage was 0.648.
Consider U21G G48A, for which the self-cleavage was 0.674.
For U21G G48U the value was 0.594.
For U21C C39U the value was 0.842; for U21C C39A, 0.498.
For U21A A40U the value was 0.896.
As to U21A A40G, the self-cleavage worked out at 0.97.
For U21A A40C the value was 0.651; for U21G U55C, 0.358; for U21G U55A, 0.592.
U21A C32G: the self-cleavage turned out to be 0.504.
Regarding U21C U61G, the self-cleavage turned out to be 0.7.
For U21C U61C, the self-cleavage is 0.572.
In the case of U21C G47U, the self-cleavage was 0.978.
For the variant U21C G47A, the self-cleavage came out at 0.915.
As for U21C G47C, the self-cleavage was 0.915.
For U21A C24A the value was 0.541.
Regarding U21A C24G, the self-cleavage came to 0.214.
For U21G U38G the value was 0.274; for U21G U38A, 0.157; for U21G C66G, 0.219.
For U21G C66U the value was 0.529; for U21G C66A, 0.263.
For U21A G58A the value was 0.898; for U21A U62G, 0.798.
Take U21A U62A: the self-cleavage was 0.853.
For U21G G31A the value was 0.175; for U21G G31U, 0.24.
On to U20G G56C, for which the self-cleavage was 0.104.
With U20G G56U, the self-cleavage was 0.199.
For U20G G56A the value was 0.191; for U21C U53A, 0.765.
For U21C U53C the value was 0.726.
For U21G U49C the value was 0.738.
For the variant U21G G56U, the self-cleavage was found to be 0.611.
For U21A G48A the value was 1; for U21A G48U, 0.978.
In the case of U21C G68A, the self-cleavage stood at 1.
For U21C C54A the value was 0.769; for U21C C54G, 0.688; for U21C C54U, 0.883.
For U21G A40G the value was 0.463.
U21G A40U: the self-cleavage stood at 0.317.
Consider U21G U26A, for which the self-cleavage was found to be 0.3.
For U21G U26G the value was 0.221; for U21C C34G, 0.328; for U21C C34U, 0.898.
For U21C C34A the value was 0.303; for U21G C29G, 0.158; for U21G C29U, 0.166.
On to U21A U69G, for which the self-cleavage was 1.06.
For U21A U69A the value was 1.01; for U21A U69C, 1.06.
Regarding U21G C35A, the self-cleavage turned out to be 0.13.
For U20G U44G the value was 0.168.
Turning to U21A A23C, the self-cleavage was 0.969.
For U21A A23U the value was 0.962; for U21A A23G, 0.943.
For U21G C63A the value was 0.245; for U21G A23U, 0.483.
For U21G A23C the value was 0.379.
As for U20G G50C, the self-cleavage came to 0.246.
As to U21G C57U, the self-cleavage came out at 0.253.
With U21G C57A, the self-cleavage came to 0.22.
Turning to U21C C22A, the self-cleavage turned out to be 0.24.
U21G G25U: the self-cleavage was found to be 0.187.
For U21G G25C the value was 0.185; for U21G G28U, 0.0808.
For U20G U64C the value was 0.189; for U21G G58C, 0.519.
For U21G G58U the value was 0.657; for U21A G28C, 0.193.
For U21A G28A, the self-cleavage turned out to be 0.219.
For U21G G41A the value was 0.388.
For U21G G41C the value was 0.276; for U21G G41U, 0.373; for U21A A42C, 0.902.
On to U21A A42G, for which the self-cleavage is 0.858.
For the variant U21A U38G, the self-cleavage was found to be 0.24.
For U21A U38C the value was 0.373; for U21A U38A, 0.276; for U21C G58C, 0.826.
For U21C G58U the value was 0.952; for U21C G58A, 0.673; for U21A C22A, 0.132.
For U21A C22G the value was 0.0886; for U21A C54U, 0.673; for U21A C54A, 0.872.
U21A C54G: the self-cleavage stood at 0.936.
For U21G U46G the value was 0.503.
For U21G U46A the value was 0.537.
For U21C G31U the value was 0.395.
As for U21A G30U, the self-cleavage amounted to 0.343.
For U21A G30C the value was 0.532; for U21A C35A, 0.323.
For U21A C35U the value was 0.869; for U21A A59C, 0.681.
For U21A A59G the value was 1; for U21A A60C, 0.29; for U21A A60U, 0.586.
With U21A A60G, the self-cleavage was found to be 0.879.
For U21A C45G the value was 0.956.
For U21A C45U the value was 0.967.
